The values that follow come from the NTF2 design screens of Basanta et al. (2020).

A short description of this data set: protease stability score; higher = more stable; yeast display proteolysis, trypsin and chymotrypsin.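 Further: relative to predicted unfolded state with 0 unfolded-like and 1 meaning tenfold more protease.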
As for “DESTKAAEDIFEIIREMLETGDEETTRRLFDPDAKIIIGDKEIHGRENIELFMRLWLKQFDHVHDMTIRRMEIQGDKVIMDTEIHGTINGQRRTIRTRWIVVKINGKWSIHEVYFT”, the protease stability score is 2.02.

As to “DESTKEARKFKHEFDNDWKTGDEDSLLRLADPHVRTDVNGVENHGREDFVKLLMDIFREMRTEMRTRHVTVFNGRIEVHSTLHLHQGDKVIDLEVLIINRKVNGRWILESMEIK”, the protease stability score was 0.603.

Turning to “DESTKNAQEVIKMIKEIVETGDWRRHHQLVDPNARLHVHINGKDEESHGREEFTRVLMELWKEFGAKHVRFEDFELQGEKIHFHVKINVDGKDVKLLIVALKINGRWLMESVYVEFH”, the protease stability score was determined as 1.19.

Sequence “DESTRDFRQFFKLLVEHFKTGDWRRLADLFDPNVRVEINGRELHGRENIALWLRDRFKHLGVDHVHMRIRDLEVQGDKIRIHVELEIRVGDKVFYHETVLVIEKFDGRWIVHEEEYK” had a protease stability score of 1.49.

Sequence “DESTRDVKEMVEWFLRTLHTGDEHLLEHLLDPDVRVLIDGREHHGRETMREIWKEHIDKIKGAVIEIKRIEVRIQGNKAHLHVDTVLHYNGRNLDTHIEIIITKINGQWRVREVEIRVR” registered a protease stability score of 2.21.

The sequence “DESTSQARKAIEQLIHVEETGDEEMFSTLVDPHVRMDYNGVELHGMEKARNHWNELWKRFKGIKIELKRLEIQGNKVRVQMTYIVGDKNKYVEIHITKIDGQWVITEIHVD” gave a protease stability score of 1.12.

As for “DETASRAAERYMKALQTGDPDEVVKQIDPNVHVRVGDKEVQGKEQFRKKQERDKKQARYHIKHVTFNVEGDKVRVDVIFRKHHNGQPRHDRMEQRMSVRGDKITHQENHKTG”, the protease stability score came out at 0.172.

On to “DETDEHAHKMFEIIIHYLLTGDWKELIKLADPHVKLEFDINGKTIDLVGRELFTEFFLRFKNVRSEIDDVRHIGDKNHARVRVNWDGRDTEVQIDIVIIDGVVHRVRLIFK”, for which the protease stability score worked out at 2.59.

“DETDEWAHKLMELILEYWLTGDWDLFNELADPNVKLIINGRESVGREEVREMLERTLKEIRLRRIEIDHVRIYDGRAQTHSRTDGDVNGKVTETHMHLHVLLINGRIRHVEIRLH” came in with a protease stability score of 2.02.

Take “DETDEYARNMMEIFVHLLATGNEEKMLEYMDPNTRHNFNGVVLHGRDVLREWWHRWLKEIRITRTRIDHVHTQGEYVHANTTVEGTIDGRKFELETRVHLHVVNGRIKESSIKLN”: the protease stability score amounted to 1.51.

For “DETDKLAFELMEELLENFHTGNEERFHQLFDPDVRIIVNGRTLHGRRHWHKILEDIIREWRIKHIHMERLISIGDKARLDMRWNVRVNGREVHTESHVNLTVVDGRITLLEIQHH”, the protease stability score was found to be 1.52.

As to “DETEDEMHKVLKLWIEAYRTGDEELLEELFDPHVRLDINGKDFHGREAFTRQVRHEMKHLRYEDFHIDTVEVQGEKAFVHGRIVGKFDGRRRHMHSHLIILKINGRWHVESLHFK”, the protease stability score worked out at 1.26.

Regarding “DETEDTIHEAVKEFVTALMTGDEELLQKLMDPRTRLDYNGREIHGREEVIRLLLEMRIHHVEIKRIEIQGNKVHVDVKVDGEFNGQRRETKTIINATKINGRWVVQELVIR”, the protease stability score was 2.26.

As for “DETEDTSRHLLELFAHALRTGDEESSDRLLDPHVRIDINGKELIGRERFRELWEEMRIEWVKIRDVSIINGQVHVNGEMLMVYDGRTYTIETRIIILKVDGRWVIEHMKIG”, the protease stability score came out at 1.43.

With “DETEEAVLSVARLWLHLFLTGDEERTQKMMDPNARVEIDGKEVVGREKVTDMIRHKIEQIRIQDHKEKDIKVIGDKVHLHVQFHGEVDGKEINTLILINVMVVDGRIKHVEIRVS”, the protease stability score turned out to be 0.77.

Regarding “DETEEDARHFVELWRRDMITGDEDRIKEMADPNVRVIIGDKNLHGREDMTEVLRHLRIHRVNVHSIHVQGDWVHITTEVDGRIGDKRHELEVHILTRKVNGRWQLQTLEIG”, the protease stability score was determined as 1.12.

“DETEEDVREAIRKMLHSTRTGDEEDNKKLMDPNVQIDIDGVKYHGWETWVEHMRRVDHLRMKIHSIEVQGNKLIVDGELDQRFNGVQLRFRSELILVKIDGRWLVHSIHFK”: the protease stability score was 1.17.

For the sequence “DETEEEARHVFELIIEYHLTGDWDKWLRMFDPHVKLVVNGRDNHGREHAVHRLKEFLRQWRIHDVEVKSVDLQGDKVRVDGRLDGIVNGVREKTEVTLSLIVVDGKIKSHEVRIH”, the protease stability score came out at 1.51.

Regarding “DETEEEVREAIEKFIQDLHTGNWHAYNEMLDPNVRVIVGDKHLHGRERVLEWEEEFMRKVKGATYRIDHMDVIDGRINLHFRITIGDKSREFNVHSLKINGQWHTKEVRVNIL”, the protease stability score is 1.06.

Take “DETEEEVRKFVEESVKQNNTGNEDFAKRLADPNARFEQGDKELHGREEMRRVLVELWFEDYRIERLHVQGNKVEVEVVVHGVVNGKHQEVRVIIILLKINGRWVFRDVTVK”: the protease stability score worked out at 0.648.

Sequence “DETEEIAKKVVEYWIREFMTGNEESLLELIDPNAKSDILQGDKELHIVGRESARLFIKRFKGQRMEITHLEVHVQGDKVHVRLHVDIIYNGRKFHVISHVDWEKIDGRWIIHQEKFVFE” showed a protease stability score of 1.71.

“DETEELFEEIVKIFIEAMETGDWRLLKRMVDPHVRSIQGDFHLHGRESMLELWLHIRIDRITLTDARVRIQGEKVHVDLRVKTNGIINGRRKDTQTHVHLHLDKVNGVWSITITNIIFE” came in with a protease stability score of 0.553.

“DETEEMAEEVLRRFLEINRTGDWKDLHRLFDPNVRIVVNGQELHGMELYLKHEIKTRRKLGAKVEEVRLKHLDSQGEKIISEVEIIFDINGQEIRLDVRVIMNKIDGKWTIRELRIH” yielded a protease stability score of 1.08.

Sequence “DETEEMARLFNEEVRHSWKTGNEEHIKRLIDPHAKVHIGDKELHGRERATETIRKLGVKHLEIDDIHIIDGRVHVDGTLDVDGQSFRVEIILSKVNGRWLNEEIRIH” yielded a protease stability score of -0.344.

For the sequence “DETEEMIKRHMDKLFRAVRTGDWDQFVKLADPNTRIEVGDFHYHGWERFSEFMSELRIHRFRMHDSEVVNGRVHLHTEEDGEVNGKRRESRVHRVLLKIDGRWHLHSVHIE”, the protease stability score is 0.909.

On to “DETEEMVREMAHLFLHLWITGDEEIIKHLLDPSVRLHINGVDNHGRENALEVVHRILKELRLRHLHIHEVHIINGVIHNNIRLDIEQGDKRRILEIEVILVVWNGKIKSIEVRLK”, for which the protease stability score turned out to be 1.51.

The sequence “DETEERTRKAIKLSLEVLRTGDERVISEMADPHVRLDFNGRQLHGREEFVHHIVRFFEEAGINYLHIEDWDVFNGVIIEHVRWNFNGREVEVEIIANKVNGKWLIKEFRIK” had a protease stability score of 1.07.

In turn, “DETEEVMERVIQMLAHATHTGDWKDIRRLMDPNVKININGREIIGREELIRYLRELRETYHHFELKHVEVQGDKIIVHGRTLIRIEIGDKEIHLDSDVRYILWKVDGRWIMESIHIV” returned a protease stability score of 2.18.

In turn, “DETEHHAREMAELLLHVILTGDEHLMERLIDPDVKLHSFFNGRQFHRIGMEELKRYLEEWRREIRLKDVRIRQFEVQGDKFRLDMEVEGNINGRDNVTKTELIIITVNGRLHEIDIRIE” yielded a protease stability score of 2.1.

“DETEKHILKLAEMLVRDWITGNEENIMELLDPHAKIDIHIDGRYLEFHGRELITRELIRHYEEIRIHYHFRESESVGEKASINMDVEVHIGDKIVRSHTEVILDIVNGRVRNIHIRWK” displayed a protease stability score of 2.23.

“DETEKHVKHLTELWMHAWLTGDEDLLEHLLDPHTRVIIFYGDKNYHFHGRESIHIRFYELGAKHVRDFRIRDSKIQGNKLLLNGEENGLVNGRQTETEVRIELVWIDGRVHSIVVRIH” yielded a protease stability score of 1.3.

On to “DETEKIVRSVVHMFLHLMHTGDWEELMKLADPNTIVHFENHRKHGREDAIRHIIEFILRADHIEVHLDEIRIQGDKVYLNLRLILDINGRRIETRVHIILVKINGRWRIHSMDVE”, for which the protease stability score is 1.4.

“DETENSLRTMLHRLLDSIRTGDFRTVDDLADPHVKIDVGDKHIHGREIYRKIVLQADHVESRFHLHDIHNIGNWAHVDGRLINHEVVDGQKIDLDLRIEIIVTKIDGKWTIESVRFE” showed a protease stability score of 1.46.

The sequence “DETERDVREAVRIWNEDVETGNEESLLRLIDPHVRLVINGQTFHGMESMLEVLNEFLKHIRVEHIEVKRIEIQGDKAIIDTNMDIEIDGKRKQKKTTLIIRKFNGRWHLSLVEIR” showed a protease stability score of 1.86.

As for “DETERLAEKWYRHWLHLILTGDWELLEKQADPHYKFHVGDKVFIGRELASEWLRHLYEHIRIDDMKITHLDLQGDKINNDGRMRVTQGEKHKEVSVDLHMIVVNGKMHEIRIRTH”, the protease stability score stood at 1.45.

Sequence “DETERWAHLMLKLMQRYQETGDEDSLLELMDPEAKIDINGKEIHGREEWREHRYHHLRELGHTNIDVRVHLRRMHNVGDKANVRGELRININGKKLSVDVIIIILKIDGRWVIESLRLE” yielded a protease stability score of 0.736.

Sequence “DETETAKRFALEMLLHTLRTGDEEDKLRMLDPNARLVIGDKEFWGWKEFKKFVEKESRELRIQDSRIQHVELQGDKLHLDSVIIGQVNGVTVELKVEFVMNKIDGKWRVEEIIVR” returned a protease stability score of 1.34.

Consider “DETFEDAHKLFKKFWEDMRTGDESEIEKLLDPNDKVHQGEKQTHGREEASRTHQEDIRRVDVFERVHIDHIETQGDFAIIDSTWIIHFDGKRFTRKVIIFLVKINGQWKFHSITMR”, for which the protease stability score stood at 0.71.

In the case of “DETFEWANIAIEHLIHSARTGDEKTFEEMADPDTRFLYNGQIIIGREEVNKMLSTVLREIRLEDVQVKRIEVYDGRVHSDMTRQGEFDGRHFTSKTEFIVHKVDGRWSIKEIRIT”, the protease stability score worked out at 0.89.

In the case of “DETFKEQEKLIERLERVERTGDWKEWERLADPNVRMDIDGVEIIGMEMVTEFILREMRHLGVTRIRIEIKEIRVIGDKIRIDGQIQQGNKETRFILIVSKIDGRWRLEESYVH”, the protease stability score amounted to 1.06.

For “DETHEEHNRFAEEYVHALHTGDEDRLRELMDPNVRFILIIDGKEVRLHGWELLLRVIREFWERFKNIRIFIRDIDLQGEKIRLETEVNVDGVDEHWRINMVVVNGRIKSLIIEQR”, the protease stability score is 2.32.

For “DETHELIEFLLKEMIEAWKTGNEEKIMELFDPNVRLDIGDKHYHGREEVVRAMHEYRRRLGAKHITLHDHSVVNGVIHIDTVVNQGDKEVTIHIHIHIVDGKIKRIEIRLK”, the protease stability score is 2.07.

Turning to “DETHEMNEEFLRLLIHAWRTGDEDLLLHLADPNVKVNVGEFHHHGREKFSEWLKHIRFDDMRVHDMRIFDGVAHFITESDVTFNGRRRRVHVRIVVEKVNGKWRLKLFEEE”, the protease stability score was 2.66.

“DETHKDAERALEIEIRDFVTGDFKSMQRLADPNVKIEVGDKHWHGREEFEKLVKEVIDQFPNMRLDVRVTHWELQGEKLIMRTEVNEHFDGVTFKHETHIIIRKINGRWFLTSVHIQ” showed a protease stability score of 1.36.

On to “DETHKLLEDLTRLFWELTHTGDEEIVEELADPHVRSEINGKERHGREEHVKAWREWRIERMTLRSVSVINGQMSIDGEIVLKIGDKRIETRIEIRIHIVDGVMKSVKIHLE”, for which the protease stability score amounted to 0.937.

Turning to “DETHRDMEEALRLFVRLLETGNEEILSKLVDPHVKIDFENHQHIGMEDWMKFMHHIRLDSMRIDDFKLIGDKARSDTTLDGNVNGRHFKFKTWIVAQKVDGRWLEHSVEYR”, the protease stability score turned out to be 0.885.

The sequence “DETHVQMERFIEEHIKSHITGDEDYLRENIDPEARVVIDGQTYHGWKAIKDAIDQWRVTDMRIRHVRVQGEKVDIHGRLHVDVNGRNIDLEVRIIVTKVDGRWVVDQLIFN” gave a protease stability score of 1.16.
